Experimental findings from patent publication US20040072736A1 (Boehringer Ingelheim, published 2004) are described below.

The assay deals with T1, human glucagon receptor (human, UniProt P47871 26-477).
T1 construct: whole, on cells; The assay used plasma membranes from stably transfected BHK-21 cells; also called cloned human glucagon receptor
As to the kind of experiment: competition radioligand binding; displacement of 125I-glucagon from BHK-21 membranes with the human glucagon receptor; filtration. Here is the method: Binding of peptides to the glucagon receptor was assayed in a competition binding-assay using a membrane fraction containing the cloned human glucagon receptor and radiolabeled glucagon.
For measuring competition with glucagon binding, 20 μg of the membrane suspension were incubated for 60 minutes in covered microtiter plates (Optiplate, Packard Instruments) with 50.000 cpm 125I-glucagon (Amersham Pharmacia), and one concentration of the test compound in a total volume of 100 μl. The protein-bound radioactivity is separated from unbound ligand by filtration and washing on a Multiscreen-Vakuumfiltrationsystem (Millipore) using GC/B filters (Packard) and measured after addition of 20 μl Microscint 20 in a topcount scintillation counter (Packard). The non-specific binding is defined as radioactivity bound in the presence of 1 μM glucagon (Wherl GmbH).
In general terms: Displacement assays read how much labelled ligand stays bound in the presence of the test substance.

Bridges are numbered along the chain shown (N, C = ends).

T1 sequence (P47871 26-477): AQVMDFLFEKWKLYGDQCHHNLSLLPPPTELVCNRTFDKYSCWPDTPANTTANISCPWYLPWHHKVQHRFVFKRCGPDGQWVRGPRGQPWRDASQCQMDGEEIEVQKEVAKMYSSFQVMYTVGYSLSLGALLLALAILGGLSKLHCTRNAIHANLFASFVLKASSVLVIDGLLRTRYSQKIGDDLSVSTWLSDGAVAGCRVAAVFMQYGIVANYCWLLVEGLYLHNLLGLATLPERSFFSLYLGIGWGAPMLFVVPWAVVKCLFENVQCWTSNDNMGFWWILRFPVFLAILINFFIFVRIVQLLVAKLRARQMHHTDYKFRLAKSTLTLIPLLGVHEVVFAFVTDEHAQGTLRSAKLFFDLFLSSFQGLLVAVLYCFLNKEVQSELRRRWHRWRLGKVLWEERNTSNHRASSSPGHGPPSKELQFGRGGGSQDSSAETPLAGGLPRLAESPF

B1: methyl ester of the bicyclic nonadecapeptide of Example 1 (peptide)
peptide: GLPWGCPSDIPGWNTPWAC-OMe
modifications: disulfide 6-19; lactam N-9
SMILES: CC[C@H](C)[C@@H]1NC(=O)[C@@H]2CC(=O)NCC(=O)N[C@@H](CC(C)C)C(=O)N3CCC[C@H]3C(=O)N[C@@H](Cc3c[nH]c4ccccc34)C(=O)NCC(=O)N[C@@H](CSSC[C@@H](C(=O)OC)NC(=O)[C@H](C)NC(=O)[C@H](Cc3c[nH]c4ccccc34)NC(=O)[C@@H]3CCCN3C(=O)[C@H]([C@@H](C)O)NC(=O)[C@H](CC(N)=O)NC(=O)[C@H](Cc3c[nH]c4ccccc34)NC(=O)CNC(=O)[C@@H]3CCCN3C1=O)C(=O)N1CCC[C@H]1C(=O)N[C@@H](CO)C(=O)N2
Turning to B1, the concentration for half-maximal inhibition (IC50) came out at 135 nM.

B2: bicyclic nonadecapeptide of Example 1 (SEQ ID NO. 5), free acid (R = H) (peptide)
peptide: GLPWGCPSDIPGWNTPWAC-OH
modifications: disulfide 6-19; lactam N-9
SMILES: CC[C@H](C)[C@@H]1NC(=O)[C@@H]2CC(=O)NCC(=O)N[C@@H](CC(C)C)C(=O)N3CCC[C@H]3C(=O)N[C@@H](Cc3c[nH]c4ccccc34)C(=O)NCC(=O)N[C@@H](CSSC[C@@H](C(=O)O)NC(=O)[C@H](C)NC(=O)[C@H](Cc3c[nH]c4ccccc34)NC(=O)[C@@H]3CCCN3C(=O)[C@H]([C@@H](C)O)NC(=O)[C@H](CC(N)=O)NC(=O)[C@H](Cc3c[nH]c4ccccc34)NC(=O)CNC(=O)[C@@H]3CCCN3C1=O)C(=O)N1CCC[C@H]1C(=O)N[C@@H](CO)C(=O)N2
Consider B2, for which the 50% inhibitory concentration (IC50) turned out to be 100 nM.

What is called IC50 is the midpoint of a concentration-inhibition curve.
